Laboratory results as given in the supplement of paper PMC5998384.

How the values were obtained:
HeLa Kyoto [1] = assay: solubility change mitosis vs G1/S (difference of NP-40 vs SDS log2 ratios) (log2 ratio difference); higher = more soluble in mitosis
HeLa Kyoto [2] = assay: thermal stability score vs G1/S (z-score of summed log2 fold changes over temperatures); higher = more thermally stable than in G1/S
HeLa Kyoto [3] = assay: solubility in G1/S (NP-40 vs SDS abundance) (log2 ratio); higher = more soluble; conditions: cell cycle stage: G1/S
HeLa Kyoto [4] = assay: melting temperature (median over replicates), in situ; higher = more thermally stable
[5] = cell cycle stage: early G1 (4.5 h after nocodazole release)
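For melting temperature (median over replicates), in situ in this document: HeLa Kyoto cells synchronized by double thymidine or nocodazole block, proteins quantified by TMT10plex mass spectrometry, three independent biological replicates.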
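For solubility change mitosis vs G1/S (difference of NP-40 vs SDS log2 ratios) in this document: synchronized HeLa Kyoto cells (double thymidine block for G1/S, nocodazole release for mitosis), protein amounts in NP-40 versus SDS lysates quantified by mass spectrometry, three biological replicates.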
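For solubility in G1/S (NP-40 vs SDS abundance) in this document: HeLa Kyoto cells arrested at G1/S by double thymidine block, proteins quantified by TMT10plex mass spectrometry in mild NP-40 versus SDS extracts, three biological replicates.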
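For thermal stability score vs G1/S (z-score of summed log2 fold changes over temperatures) in this document: synchronized HeLa Kyoto cells, proteins quantified by TMT10plex mass spectrometry, three biological replicates, mitosis taken 0.5 h after nocodazole release, G1/S directly after double thymidine block.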

| Sequence | solubility change mitosis (log2) (HeLa Kyoto [1]) | thermal stability score (HeLa Kyoto [2]; [5]) | thermal stability score (HeLa Kyoto [2]; cell cycle stage: mitosis) | solubility in G1/S (log2) (HeLa Kyoto [3]) | melting temperature (HeLa Kyoto [4]; cell cycle stage: G1/S) | melting temperature (HeLa Kyoto [4]; cell cycle stage: mitosis) |
| --- | --- | --- | --- | --- | --- | --- |
| MEQLSDEEIDHGAEEDSDKEDQDLDKMFGAWLGELDKLTQSLDSDKPMEPVKRSPLRQETNMANFSYRFSIYNLNEALNQGETVDLDALMADLCSIEQELSSIGSGNSKRQITETKATQKLPVSRHTLKHGTLKGLSSSSNRIAKPSHASYSLDDVTAQLEQASLSMDEAAQQSVLEDTKPLVTNQHRRTASAGTVSDAEVHSISNSSHSSITSAASSMDSLDIDKVTRPQELDLTHQGQPITEEEQAAKLKAEKIRVALEKIKEAQVKKLVIRVHMSDDSSKTMMVDERQTVRQVLDNLMDKSHCGYSLDWSLVETVSELQMERIFEDHENLVENLLNWTRDSQNKLIFMERIEKYALFKNPQNYLLGKKETAEMADRNKEVLLEECFCGSSVTVPEIEGVLWLKDDGKKSWKKRYFLLRASGIYYVPKGKAKVSRDLVCFLQLDHVNVYYGQDYRNKYKAPTDYCLVLKHPQIQKKSQYIKYLCCDDVRTLHQWVNGIRIAKYGKQLYMNYQEALKRTESAYDWTSLSSSSIKSGSSSSSIPESQSNHSNQSDSGVSDTQPAGHVRSQSIVSSVFSEAWKRGTQLEESSKARMESMNRPYTSLVPPLSPQPKIVTPYTASQPSPPLPPPPPPPPPPPPPPPPPPPPLPSQSAPSAGSAAPMFVKYSTITRLQNASQHSGALFKPPTPPVMQSQSVKPQILVPPNGVVPPPPPPPPPPTPGSAMAQLKPAPCAPSLPQFSAPPPPLKIHQVQHITQVAPPTPPPPPPIPAPLPPQAPPKPLVTIPAPTSTKTVAPVVTQAAPPTPTPPVPPAKKQPAFPASYIPPSPPTPPVPVPPPTLPKQQSFCAKPPPSPLSPVPSVVKQIASQFPPPPTPPAMESQPLKPVPANVAPQSPPAVKAKPKWQPSSIPVPSPDFPPPPPESSLVFPPPPPSPVPAPPPPPPPTASPTPDKSGSPGKKTSKTSSPGGKKPPPTPQRNSSIKSSSGAEHPEPKRPSVDSLVSKFTPPAESGSPSKETLPPPAAPPKPGKLNLSGVNLPGVLQQGCVSAKAPVLSGRGKDSVVEFPSPPSDSDFPPPPPETELPLPPIEIPAVFSGNTSPKVAVVNPQPQQWSKMSVKKAPPPTRPKRNDSTRLTQAEISEQPTMATVVPQVPTSPKSSLSVQPGFLADLNRTLQRKSITRHGSLSSRMSRAEPTATMDDMALPPPPPELLSDQQKAGYGGSHISGYATLRRGPPPAPPKRDQNTKLSRDW [RAPH1] | -0.187 | -1.35 | -0.404 | 0.0855 | 52 °C | 52.3 °C |
| MEQPGQDPTSDDVMDSFLEKFQSQPYRGGFHEDQWEKEFEKVPLFMSRAPSEIDPRENPDLACLQSIIFDEERSPEEQAKTYKDEGNDYFKEKDYKKAVISYTEGLKKKCADPDLNAVLYTNRAAAQYYLGNFRSALNDVTAARKLKPCHLKAIIRGALCHLELKHFAEAVNWCDEGLQIDAKEKKLLEMRAKADKLKRIEQRDVRKANLKEKKERNQNEALLQAIKARNIRLSEAACEDEDSASEGLGELFLDGLSTENPHGARLSLDGQGRLSWPVLFLYPEYAQSDFISAFHEDSRFIDHLMVMFGETPSWDLEQKYCPDNLEVYFEDEDRAELYRVPAKSTLLQVLQHQRYFVKALTPAFLVCVGSSPFCKNFLRGRKVYQIR [TTC4] | -0.0862 | -0.209 | 0.287 | 0.484 | 49.8 °C | 49.4 °C |
| MEQPKGVDWTVIILTCQYKDSVQVFQRELEVRQKREQIPAGTLLLAVEDPEKRVGSGGATLNALLVAAEHLSARAGFTVVTSDVLHSAWILILHMGRDFPFDDCGRAFTCLPVENPEAPVEALVCNLDCLLDIMTYRLGPGSPPGVWVCSTDMLLSVPANPGISWDSFRGARVIALPGSPAYAQNHGVYLTDPQGLVLDIYYQGTEAEIQRCVRPDGRVPLVSGVVFFSVETAERLLATHVSPPLDACTYLGLDSGARPVQLSLFFDILHCMAENVTREDFLVGRPPELGQGDADVAGYLQSARAQLWRELRDQPLTMAYVSSGSYSYMTSSASEFLLSLTLPGAPGAQIVHSQVEEQQLLAAGSSVVSCLLEGPVQLGPGSVLQHCHLQGPIHIGAGCLVTGLDTAHSKALHGRELRDLVLQGHHTRLHGSPGHAFTLVGRLDSWERQGAGTYLNVPWSEFFKRTGVRAWDLWDPETLPAEYCLPSARLFPVLHPSRELGPQDLLWMLDHQEDGGEALRAWRASWRLSWEQLQPCLDRAATLASRRDLFFRQALHKARHVLEARQDLSLRPLIWAAVREGCPGPLLATLDQVAAGAGDPGVAARALACVADVLGCMAEGRGGLRSGPAANPEWMRPFSYLECGDLAAGVEALAQERDKWLSRPALLVRAARHYEGAGQILIRQAVMSAQHFVSTEQVELPGPGQWVVAECPARVDFSGGWSDTPPLAYELGGAVLGLAVRVDGRRPIGARARRIPEPELWLAVGPRQDEMTVKIVCRCLADLRDYCQPHAPGALLKAAFICAGIVHVHSELQLSEQLLRTFGGGFELHTWSELPHGSGLGTSSILAGTALAALQRAAGRVVGTEALIHAVLHLEQVLTTGGGWQDQVGGLMPGIKVGRSRAQLPLKVEVEEVTVPEGFVQKLNDHLLLVYTGKTRLARNLLQDVLRSWYARLPAVVQNAHSLVRQTEECAEGFRQGSLPLLGQCLTSYWEQKKLMAPGCEPLTVRRMMDVLAPHVHGQSLAGAGGGGFLYLLTKEPQQKEALEAVLAKTEGLGNYSIHLVEVDTQGLSLKLLGTEASTCCPFP [FUK] | -0.182 | -0.477 | -1.02 | -0.0525 | 56.6 °C | 54.8 °C |
| MERAAPSRRVPLPLLLLGGLALLAAGVDADVLLEACCADGHRMATHQKDCSLPYATESKECRMVQEQCCHSQLEELHCATGISLANEQDRCATPHGDNASLEATFVKRCCHCCLLGRAAQAQGQSCEYSLMVGYQCGQVFQACCVKSQETGDLDVGGLQETDKIIEVEEEQEDPYLNDRCRGGGPCKQQCRDTGDEVVCSCFVGYQLLSDGVSCEDVNECITGSHSCRLGESCINTVGSFRCQRDSSCGTGYELTEDNSCKDIDECESGIHNCLPDFICQNTLGSFRCRPKLQCKSGFIQDALGNCIDINECLSISAPCPIGHTCINTEGSYTCQKNVPNCGRGYHLNEEGTRCVDVDECAPPAEPCGKGHRCVNSPGSFRCECKTGYYFDGISRMCVDVNECQRYPGRLCGHKCENTLGSYLCSCSVGFRLSVDGRSCEDINECSSSPCSQECANVYGSYQCYCRRGYQLSDVDGVTCEDIDECALPTGGHICSYRCINIPGSFQCSCPSSGYRLAPNGRNCQDIDECVTGIHNCSINETCFNIQGGFRCLAFECPENYRRSAATLQQEKTDTVRCIKSCRPNDVTCVFDPVHTISHTVISLPTFREFTRPEEIIFLRAITPPHPASQANIIFDITEGNLRDSFDIIKRYMDGMTVGVVRQVRPIVGPFHAVLKLEMNYVVGGVVSHRNVVNVHIFVSEYWF [FBLN1] | -0.045 | 1.49 | 0.0681 | -0.102 | 54 °C | 55.4 °C |
| MERAESSSTEPAKAIKPIDRKSVHQICSGQVVLSLSTAVKELVENSLDAGATNIDLKLKDYGVDLIEVSDNGCGVEEENFEGLTLKHHTSKIQEFADLTQVETFGFRGEALSSLCALSDVTISTCHASAKVGTRLMFDHNGKIIQKTPYPRPRGTTVSVQQLFSTLPVRHKEFQRNIKKEYAKMVQVLHAYCIISAGIRVSCTNQLGQGKRQPVVCTGGSPSIKENIGSVFGQKQLQSLIPFVQLPPSDSVCEEYGLSCSDALHNLFYISGFISQCTHGVGRSSTDRQFFFINRRPCDPAKVCRLVNEVYHMYNRHQYPFVVLNISVDSECVDINVTPDKRQILLQEEKLLLAVLKTSLIGMFDSDVNKLNVSQQPLLDVEGNLIKMHAADLEKPMVEKQDQSPSLRTGEEKKDVSISRLREAFSLRHTTENKPHSPKTPEPRRSPLGQKRGMLSSSTSGAISDKGVLRPQKEAVSSSHGPSDPTDRAEVEKDSGHGSTSVDSEGFSIPDTGSHCSSEYAASSPGDRGSQEHVDSQEKAPKTDDSFSDVDCHSNQEDTGCKFRVLPQPTNLATPNTKRFKKEEILSSSDICQKLVNTQDMSASQVDVAVKINKKVVPLDFSMSSLAKRIKQLHHEAQQSEGEQNYRKFRAKICPGENQAAEDELRKEISKTMFAEMEIIGQFNLGFIITKLNEDIFIVDQHATDEKYNFEMLQQHTVLQGQRLIAPQTLNLTAVNEAVLIENLEIFRKNGFDFVIDENAPVTERAKLISLPTSKNWTFGPQDVDELIFMLSDSPGVMCRPSRVKQMFASRACRKSVMIGTALNTSEMKKLITHMGEMDHPWNCPHGRPTMRHIANLGVISQN [PMS2] | -0.029 | 1.02 | 1.74 | -0.0345 | 48.3 °C | 49.7 °C |
| MERAISPGLLVRALLLLLLLLGLAARTVAAGRARGLPAPTAEAAFGLGAAAAPTSATRVPAAGAVAAAEVTVEDAEALPAAAGEQEPRGPEPDDETELRPRGRSLVIISTLDGRIAALDPENHGKKQWDLDVGSGSLVSSSLSKPEVFGNKMIIPSLDGALFQWDQDRESMETVPFTVESLLESSYKFGDDVVLVGGKSLTTYGLSAYSGKVRYICSALGCRQWDSDEMEQEEDILLLQRTQKTVRAVGPRSGNEKWNFSVGHFELRYIPDMETRAGFIESTFKPNENTEESKIISDVEEQEAAIMDIVIKVSVADWKVMAFSKKGGHLEWEYQFCTPIASAWLLKDGKVIPISLFDDTSYTSNDDVLEDEEDIVEAARGATENSVYLGMYRGQLYLQSSVRISEKFPSSPKALESVTNENAIIPLPTIKWKPLIHSPSRTPVLVGSDEFDKCLSNDKFSHEEYSNGALSILQYPYDNGYYLPYYKRERNKRSTQITVRFLDNPHYNKNIRKKDPVLLLHWWKEIVATILFCIIATTFIVRRLFHPHPHRQRKESETQCQTENKYDSVSGEANDSSWNDIKNSGYISRYLTDFEPIQCLGRGGFGVVFEAKNKVDDCNYAIKRIRLPNRELAREKVMREVKALAKLEHPGIVRYFNAWLEAPPEKWQEKMDEIWLKDESTDWPLSSPSPMDAPSVKIRRMDPFATKEHIEIIAPSPQRSRSFSVGISCDQTSSSESQFSPLEFSGMDHEDISESVDAAYNLQDSCLTDCDVEDGTMDGNDEGHSFELCPSEASPYVRSRERTSSSIVFEDSGCDNASSKEEPKTNRLHIGNHCANKLTAFKPTSSKSSSEATLSISPPRPTTLSLDLTKNTTEKLQPSSPKVYLYIQMQLCRKENLKDWMNGRCTIEERERSVCLHIFLQIAEAVEFLHSKGLMHRDLKPSNIFFTMDDVVKVGDFGLVTAMDQDEEEQTVLTPMPAYARHTGQVGTKLYMSPEQIHGNSYSHKVDIFSLGLILFELLYPFSTQMERVRTLTDVRNLKFPPLFTQKYPCEYVMVQDMLSPSPMERPEAINIIENAVFEDLDFPGKTVLRQRSRSLSSSGTKHSRQSNNSHSPLPSN [EIF2AK3] | -0.0251 | -0.111 | 0.409 | 0.0589 | 51 °C | – |
| MERASLIQKAKLAEQAERYEDMAAFMKGAVEKGEELSCEERNLLSVAYKNVVGGQRAAWRVLSSIEQKSNEEGSEEKGPEVREYREKVETELQGVCDTVLGLLDSHLIKEAGDAESRVFYLKMKGDYYRYLAEVATGDDKKRIIDSARSAYQEAMDISKKEMPPTNPIRLGLALNFSVFHYEIANSPEEAISLAKTTFDEAMADLHTLSEDSYKDSTLIMQLLRDNLTLWTADNAGEEGGEAPQEPQS [SFN] | 0.358 | -2.86 | -2.25 | 0.311 | 52.6 °C | 53.1 °C |
